{"source": "paper PMC11250262", "about": "“Understanding the genetic complexity of puberty timing across the allele frequency spectrum” (Nature Genetics, 2024)", "binders": {"B1": {"name": "GPR83-Venus (receptor, human, UniProt Q9NYM4-1 17-423, looked up)", "chain": "TEPHEGRADEQSAEAALAVPNASHFFSWNNYTFSDWQNFVGRRRYGAESQNPTVKALLIVAYSFIIVFSLFGNVLVCHVIFKNQRMHSATSLFIVNLAVADIMITLLNTPFTLVRFVNSTWIFGKGMCHVSRFAQYCSLHVSALTLTAIAVDRHQVIMHPLKPRISITKGVIYIAVIWTMATFFSLPHAICQKLFTFKYSEDIVRSLCLPDFPEPADLFWKYLDLATFILLYILPLLIISVAYARVAKKLWLCNMIGDVTTEQYFALRRKKKKTIKMLMLVVVLFALCWFPLNCYVLLLSSKVIRTNNALYFAFHWFAMSSTCYNPFIYCWLNENFRIELKALLSMCQRPPKPQEDRPPSPVPSFRVAWTEKNDGQRAPLANNLLPTSQLQSGKTDLSSVEPIVTMS"}}, "target": "MC3R-RlucII (human, UniProt P41968 1-323)", "sequence (P41968 whole entry)": "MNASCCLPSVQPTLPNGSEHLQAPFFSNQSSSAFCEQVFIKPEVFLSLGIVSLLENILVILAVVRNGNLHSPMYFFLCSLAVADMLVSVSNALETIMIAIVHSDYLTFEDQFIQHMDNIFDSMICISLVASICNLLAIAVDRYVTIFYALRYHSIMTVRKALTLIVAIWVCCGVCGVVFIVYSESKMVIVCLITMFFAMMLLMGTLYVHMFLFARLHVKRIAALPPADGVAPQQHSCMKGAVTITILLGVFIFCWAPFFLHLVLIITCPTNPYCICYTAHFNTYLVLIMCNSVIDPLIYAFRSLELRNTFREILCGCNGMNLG", "assay": "cell-based or functional assay"}
{"binder": "B1", "values": [{"measurement": "NDP-αMSH-stimulated cAMP production (GloSensor, area under the curve) in HEK293 cells cotransfected with GPR83 and MC3R (1:1 ratio), against MC3R alone", "value": 43, "unit": "%"}]}
